The target in experiment [1] is T1, Adw S-HBs protein (adw HBsAg particles, GenHevac (Adw)) (hepatitis B virus, adw subtype).
T1 construct: also called GenHevac-B
The experiment is described as follows: ELISA on recombinant HBV vaccine particles.

Experiment [2] concerns the target T2, Ayw S-HBs protein (ayw HBsAg particles, Engerix-B (Ayw)) (hepatitis B virus, ayw subtype). The experiment is described as follows: ELISA on recombinant HBV vaccine particles. A general note: In an ELISA, binding on a coated surface is turned into a signal by an enzyme label.
The target in experiment [3] is T1, Adw S-HBs protein (adw HBsAg particles, …). The experiment is described as follows: ELISA, AUC of binding curve. Further details: unit not given beside the values.
For experiment [4], the target named is T2, Ayw S-HBs protein (ayw HBsAg particles, …). The experiment is described as follows: ELISA, AUC of binding curve. Further details: unit not given beside the values.
For experiment [5], the target named is genotype D S-HBs mutant protein T126A (hepatitis B virus genotype D, UniProt P03138 164-389). Description: flow cytometry, S-HBs-transfected 293-F cells.
Experiment [6] deals with T3, consensus S-HBs protein of HBV genotype A (ConsHBAg_A) (hepatitis B virus genotype A (consensus), UniProt P03141 175-400).
T3 construct: also called genotype A S-HBs
The experiment is described as follows: flow cytometry, S-HBs-transfected 293-F cells. On the technique in general: In flow cytometry, cells or beads pass a laser one at a time.

Experiment [7] concerns the target genotype D S-HBs mutant protein Y134V (hepatitis B virus genotype D, UniProt P03138 164-389). The experiment is described as follows: flow cytometry, S-HBs-transfected 293-F cells.
Experiment [8] addresses genotype D S-HBs mutant protein N146S (hepatitis B virus genotype D, UniProt P03138 164-389). The experiment is described as follows: flow cytometry, S-HBs-transfected 293-F cells.
For experiment [9], the target named is T4, consensus S-HBs protein of HBV genotype H (ConsHBAg_H) (hepatitis B virus genotype H (consensus), UniProt Q8JMZ6 175-400).
T4 construct: also called genotype H S-HBs
The experiment is described as follows: flow cytometry, S-HBs-transfected 293-F cells.

In experiment [10] the target is T5, consensus S-HBs protein of HBV genotype G (ConsHBAg_G) (hepatitis B virus genotype G (consensus), UniProt Q9IBI3 174-399).
T5 construct: also called genotype G S-HBs
Description: flow cytometry, S-HBs-transfected 293-F cells.

The target in experiment [11] is T6, consensus S-HBs protein of HBV genotype F (ConsHBAg_F) (hepatitis B virus genotype F (consensus), UniProt Q05496 175-400).
T6 construct: also called genotype F S-HBs
Description: flow cytometry, S-HBs-transfected 293-F cells.

The target of experiment [12] is T7, consensus S-HBs protein of HBV genotype E (ConsHBAg_E) (hepatitis B virus genotype E (consensus), UniProt Q69603 174-399).
T7 construct: also called genotype E S-HBs
T7 chain: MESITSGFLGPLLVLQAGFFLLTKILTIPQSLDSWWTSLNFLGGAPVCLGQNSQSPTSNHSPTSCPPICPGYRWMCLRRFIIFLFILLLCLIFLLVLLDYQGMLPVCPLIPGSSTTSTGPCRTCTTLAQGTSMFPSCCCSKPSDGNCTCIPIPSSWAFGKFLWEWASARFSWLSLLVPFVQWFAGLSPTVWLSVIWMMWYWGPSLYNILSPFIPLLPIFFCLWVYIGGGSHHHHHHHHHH
The experiment is described as follows: flow cytometry, S-HBs-transfected 293-F cells.

Experiment [13] addresses T8, consensus S-HBs protein of HBV genotype C (ConsHBAg_C) (hepatitis B virus genotype C (consensus), UniProt P03140 175-400).
T8 construct: also called genotype C S-HBs
The experiment is described as follows: flow cytometry, S-HBs-transfected 293-F cells.

Experiment [14] addresses genotype D S-HBs mutant protein G145R (hepatitis B virus genotype D, UniProt P03138 164-389). The experiment is described as follows: flow cytometry, S-HBs-transfected 293-F cells.
Experiment [15] concerns the target genotype D S-HBs mutant protein M133T (hepatitis B virus genotype D, UniProt P03138 164-389). Description: flow cytometry, S-HBs-transfected 293-F cells.
Experiment [16] concerns the target T9, consensus S-HBs protein of HBV genotype D (ConsHBAg_D) (hepatitis B virus genotype D (consensus), UniProt P03138 164-389).
T9 construct: also called genotype D S-HBs; ConsD S-HBs
Description: flow cytometry, S-HBs-transfected 293-F cells.

Experiment [17] deals with T10, consensus S-HBs protein of HBV genotype B (ConsHBAg_B) (hepatitis B virus genotype B (consensus), UniProt Q9PWW3 175-400).
T10 construct: also called genotype B S-HBs
Description: flow cytometry, S-HBs-transfected 293-F cells.

The target of experiment [18] is T11, consensus S-HBs protein of HBV genotype I (ConsHBAg_I) (hepatitis B virus genotype I (consensus), UniProt P31873 175-400).
T11 construct: also called genotype I S-HBs
T11 chain: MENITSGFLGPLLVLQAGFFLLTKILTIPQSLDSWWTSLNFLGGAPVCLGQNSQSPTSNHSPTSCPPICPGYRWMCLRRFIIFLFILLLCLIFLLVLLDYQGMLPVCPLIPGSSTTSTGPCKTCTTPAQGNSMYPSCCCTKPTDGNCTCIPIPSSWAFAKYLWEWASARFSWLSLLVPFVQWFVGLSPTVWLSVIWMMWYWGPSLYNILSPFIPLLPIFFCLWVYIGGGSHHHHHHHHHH
The experiment is described as follows: flow cytometry, S-HBs-transfected 293-F cells.

The target in experiment [19] is HBV genotype D viruses (produced in HepG2.2.15 cell culture supernatant) (hepatitis B virus genotype D). The experiment is described as follows: cell-based or functional assay.

From patent US20230340081A1 (Hoffmann-La Roche, published 2023) come the findings set out here.

The term EC50 denotes the concentration giving half of the maximal effect.

T6 sequence (Q05496 175-400, tags left off): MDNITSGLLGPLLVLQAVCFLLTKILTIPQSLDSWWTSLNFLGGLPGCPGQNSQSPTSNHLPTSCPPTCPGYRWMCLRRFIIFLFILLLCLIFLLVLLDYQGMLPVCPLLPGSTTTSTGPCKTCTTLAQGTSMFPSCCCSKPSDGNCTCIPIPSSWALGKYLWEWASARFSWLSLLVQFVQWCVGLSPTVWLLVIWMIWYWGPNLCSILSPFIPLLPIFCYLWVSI
T4 sequence (Q8JMZ6 175-400, tags left off): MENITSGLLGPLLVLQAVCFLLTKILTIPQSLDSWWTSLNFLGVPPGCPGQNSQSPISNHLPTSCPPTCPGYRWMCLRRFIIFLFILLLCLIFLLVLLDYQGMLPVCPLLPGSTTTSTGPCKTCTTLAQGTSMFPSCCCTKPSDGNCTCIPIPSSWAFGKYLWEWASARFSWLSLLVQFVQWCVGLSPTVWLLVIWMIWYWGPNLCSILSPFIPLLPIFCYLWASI

B1: Bc1.187 (antibody, human IgG1, kappa)
heavy: not shown
light: DIQMTQSPSSLSAYVGDRVTITCRASQRISTYLNWYHQRPGKSPSLLIYGASSLQSGVPSRFSASASGTDFTLTISSLRPEDLGTYYCQQTYTLPPNSGGGTKVEIKRTVAAPSVFIFPPSDEQLKSGTASVVCLLNNFYPREAKVQWKVDNALQSGNSQESVTEQDSKDSTYSLSSTLTLSKADYEKHKVYACEVTHQGLSSPVTKSFNRGEC
notes: also called Bcl.187; Bc1.187_huIgG1_wt
As for B1, the EC50 in experiment [1] was 4.9 ng/mL; in experiment [2], 3.5 ng/mL. Further, the results for the “AUC (serotype binding)” value in experiment [3] and in [4] were 36 and 35, respectively. The “% of bound S-HBs-expressing cells” value worked out at 60% in [5]; 73% in experiment [6]; 57% in experiment [7]; 48% in [8]; 59% in experiment [9]; 64% in experiment [10]. Further, the “% of bound S-HBs-expressing cells” value is 58% in experiment [11]; 66% in [12]; 67% in [13]; 17% in [14]; 52% in [15]; 66% in experiment [16]. For the same molecule, the entries for the “% of bound S-HBs-expressing cells” value in experiment [17] and in experiment [18] were 70% and 54%, respectively. Further, in experiment [19], the “HBV-gD in vitro neutralization (IC50 µg/ml)” value (“HBV-gD in vitro neutralization” for short) was 5e-08 µg/mL.

B2: Bc1.128 (antibody)
heavy: not shown
light: DIQLTQSPSSLSASVGDRVTITCRASQGIRSDLGWYQQKPGKAPKRLIYGASNLQRGVPSRFSGSGSGTEFTLTISSLQPEDFASYYCLQHNSFPWTFGQGTKVEIKRTVAAPSVFIFPPSDEQLKSGTASVVCLLNNFYPREAKVQWKVDNALQSGNSQESVTEQDSKDSTYSLSSTLTLSKADYEKHKVYACEVTHQGLSSPVTKSFNRGEC
On to B2, for which the values for the EC50 in experiment [1] and in [2] were 7.2 ng/mL and 5.7 ng/mL, respectively. The “AUC (serotype binding)” value in experiment [3] turned out to be 35; in experiment [4] it was 37. Also, the “% of bound S-HBs-expressing cells” value came out at 53% in experiment [5]; 64% in [6]; 47% in experiment [7]; 46% in [8]; 59% in experiment [9]; 58% in experiment [10]. The “% of bound S-HBs-expressing cells” value in [11] worked out at 58%; in [12] it was 65%; in experiment [13] it was 67%; in experiment [14], 0%; in [15], 48%; in experiment [16], 64%. Further, the “% of bound S-HBs-expressing cells” value in [17] is 67%; in experiment [18], 47%. Moreover, the “HBV-gD in vitro neutralization” value in experiment [19] is 0.000544 µg/mL.

B3: Bc3.106 (antibody)
heavy: not shown
light: DIQMTQSPSSLSASVGDRVTITCRASQGIRNDLGWYQQKPGKAPKRLIYAASSLQSGVPSRFSGSGSGTEFTLTISSLQPEDFATYYCLQHNSYPRTFGQGTKVEIKRTVAAPSVFIFPPSDEQLKSGTASVVCLLNNFYPREAKVQWKVDNALQSGNSQESVTEQDSKDSTYSLSSTLTLSKADYEKHKVYACEVTHQGLSSPVTKSFNRGEC
As to B3, the concentration giving a half-maximal response (EC50) turned out to be 42.1 ng/mL in experiment [1] and 19.3 ng/mL in experiment [2]. Further, the results for the “AUC (serotype binding)” value in [3] and in experiment [4] were 36 and 37, respectively. In addition, the “% of bound S-HBs-expressing cells” value came to 71% in experiment [5]; 70% in experiment [6]; 69% in experiment [7]; 63% in experiment [8]; 59% in experiment [9]; 65% in [10]. Further, the “% of bound S-HBs-expressing cells” value stood at 55% in experiment [11]; 59% in [12]; 83% in experiment [13]; 67% in experiment [14]; 66% in [15]; 62% in experiment [16]. Further, the “% of bound S-HBs-expressing cells” value amounted to 55% in experiment [17] and 53% in experiment [18]. For the same molecule, the “HBV-gD in vitro neutralization” value in experiment [19] turned out to be 1.39e-07 µg/mL.
